The term stoichiometry N denotes a count of units in the complex or per binding partner.

One protein from paper PMC8176221, “Identification and Characterization of Two Transmembrane Proteins Required for Virulence of Ustilago maydis” (Frontiers in Plant Science, 2021) can be followed below.

The data set concerns the molecule itself. The data set is described as follows: SEC; Vmp2 on a Superose 6 Increase 10/300 column in SEC buffer with 0.03% DDM. (In general: In gel filtration, larger molecules generally elute earlier.)

B1: Vmp2 (virulence-associated membrane protein 2), full length without the signal peptide (natural protein)
chain: AESQCEERNDYSRKRPSHKPFTSHQNKQDRSCSSPLPSESCSTSAITPSDSAVRDTSLSRRGLPGMPGDIEWMGFYGSLLAVPTMLSILGIITNYNLGKSYYNSELNAQYYKQSREMLRAHTAKLIQDQEKKFANAGVSWNGMVYGKDGQVNPGAKLPEWNGRVLGGTVANPKSQPVPGSGGAVQGAAAGVGGGTTAGVAAGAGAASAGTGPAQVGGATAGGAGAEAQTGTGAIATGTGTGGAGDAGGSAPVSSGAEQGDAEAGDEARGSEERGDDGTEDRRGGQSEGDDDSDSDGNDEGDAGDAGDAGDA
notes: Vmp2 (UMAG_01689) of Ustilago maydis SG200, a protein of 335 aa, cloned from genomic DNA without the signal peptide (25 aa as predicted by SignalP-5.0); one TM helix at residues 100-115; The methods say that the Mistics-tag was cleaved off with TEV before SEC; also called UMAG_01689; full length Vmp2; source: E. coli OverExpress C43 (DE3), purified (membrane fraction solubilised with DDM, Ni-NTA, …)
Consider B1, for which the “stoichiometry N” value was 2.
